{"source": "patent US20170145113A1", "about": "(Genentech, published 2017)", "binders": {"B1": {"name": "h15H6.v2 variant LC7 (LC-S92Y) Fab (Fab, V domains shown)", "VH": "EVQLVQSGAEVKKPGASVKVSCKASGYTFTDSEMHWVRQAPGQGLEWIGGVDPETDGAAYNQKFKGRATITRDTSTSTAYLELSSLRSEDTAVYYCTRGYDYDYALDYWGQGTLVTVSS", "VL": "DIQMTQSPSSLSASVGDRVTITCRASSSVNFIHWYQQKPGKAPKPLISATSNLASGVPSRFSGSGSGTDFTLTISSLQPEDFATYYCQQWYSNPWTFGQGTKVEIK", "notes": "Fab-Flag tag fusion from 293T cells"}, "B2": {"name": "h15H6.v2 variant LC3 (LC-N31E) Fab (Fab, V domains shown)", "VH": "B1 VH", "VL": "B1 VL with N30E, Y91S", "notes": "as for B1"}, "B3": {"name": "h15H6.v2 LC-N94E LC-P95 Fab (Fab, V domains shown)", "VH": "B1 VH", "VL": "B1 VL with Y91S, N93E", "notes": "Produced as Fab; also called EP"}, "B4": {"name": "h15H6.v2 LC-N94A LC-P95 Fab (Fab, V domains shown)", "VH": "B1 VH", "VL": "B1 VL with Y91S, N93A", "notes": "Produced as Fab; also called AP"}, "B5": {"name": "AG (Fab, V domains shown)", "VH": "B1 VH with D56A", "VL": "B1 VL with Y91S", "notes": "single member of the group m42; also called h15H6.v2 HC-D55A HC-G56 Fab"}, "B6": {"name": "h15H6.v2 HC-D55E HC-G56 Fab (Fab, V domains shown)", "VH": "B1 VH with D56E", "VL": "B1 VL with Y91S", "notes": "Produced as Fab; also called EG"}, "B7": {"name": "DA (Fab, V domains shown)", "VH": "B1 VH with G57A", "VL": "B1 VL with Y91S", "notes": "single member of the group m42; also called h15H6.v2 HC-D55 HC-G56A Fab"}, "B8": {"name": "SG (Fab, V domains shown)", "VH": "B1 VH with D56S", "VL": "B1 VL with Y91S", "notes": "single member of the group m42; also called h15H6.v2 HC-D55S HC-G56 Fab"}, "B9": {"name": "APEG.LC3.HC2 (Fab, V domains shown)", "VH": "B1 VH with T30R, D56E", "VL": "B1 VL with N30E, Y91S, N93A"}, "B10": {"name": "APEG.LC7.HC2 (Fab, V domains shown)", "VH": "B1 VH with T30R, D56E", "VL": "B1 VL with N93A"}, "B11": {"name": "APEG.LC347.HC13 (Fab, V domains shown)", "VH": "B1 VH with T28K, T30K, D56E", "VL": "B1 VL with N30E, N52H, N93A", "notes": "single member of the group m82"}, "B12": {"name": "APEG.LC3.HC1 (Fab, V domains shown)", "VH": "B1 VH with T30K, D56E", "VL": "B1 VL with N30E, Y91S, N93A", "notes": "as for B11"}, "B13": {"name": "APEG.LC37.HC13 (Fab, V domains shown)", "VH": "B1 VH with T28K, T30K, D56E", "VL": "B1 VL with N30E, N93A", "notes": "as for B11"}, "B14": {"name": "combination mutant LC3.HC1 Fab (Fab, V domains shown)", "VH": "B1 VH with T30K", "VL": "B1 VL with N30E, Y91S", "notes": "Fab"}, "B15": {"name": "APEG.LC37.HC23 (Fab, V domains shown)", "VH": "B1 VH with T28K, T30R, D56E", "VL": "B1 VL with N30E, N93A", "notes": "as for B11"}, "B16": {"name": "APEG.LC347.HC23 (Fab, V domains shown)", "VH": "B1 VH with T28K, T30R, D56E", "VL": "B1 VL with N30E, N52H, N93A", "notes": "as for B11"}, "B17": {"name": "APEG.LC7.HC3 (Fab, V domains shown)", "VH": "B1 VH with T28K, D56E", "VL": "B1 VL with N93A"}, "B18": {"name": "APEG.LC7.HC1 (Fab, V domains shown)", "VH": "B1 VH with T30K, D56E", "VL": "B1 VL with N93A"}, "B19": {"name": "combination mutant LC4.HC1 Fab (Fab, V domains shown)", "VH": "B1 VH with T30K", "VL": "B1 VL with N52H, Y91S", "notes": "Fab"}, "B20": {"name": "combination mutant LC4.HC2 Fab (Fab, V domains shown)", "VH": "B1 VH with T30R", "VL": "B1 VL with N52H, Y91S", "notes": "Fab"}, "B21": {"name": "combination mutant LC7.HC3 Fab (Fab, V domains shown)", "VH": "B1 VH with T28K", "VL": "B1 VL", "notes": "Fab"}, "B22": {"name": "combination mutant LC4.HC5 Fab (Fab, V domains shown)", "VH": "B1 VH with M34L", "VL": "B1 VL with N52H, Y91S", "notes": "Fab"}, "B23": {"name": "combination mutant LC5.HC5 Fab (Fab, V domains shown)", "VH": "B1 VH with M34L", "VL": "B1 VL with N52E, Y91S", "notes": "Fab"}, "B24": {"name": "combination mutant LC3.HC3 Fab (Fab, V domains shown)", "VH": "B1 VH with T28K", "VL": "B1 VL with N30E, Y91S", "notes": "Fab"}, "B25": {"name": "combination mutant LC5.HC3 Fab (Fab, V domains shown)", "VH": "B1 VH with T28K", "VL": "B1 VL with N52E, Y91S", "notes": "Fab"}, "B26": {"name": "combination mutant LC5.HC1 Fab (Fab, V domains shown)", "VH": "B1 VH with T30K", "VL": "B1 VL with N52E, Y91S", "notes": "Fab"}, "B27": {"name": "combination mutant LC7.HC1 Fab (Fab, V domains shown)", "VH": "B1 VH with T30K", "VL": "B1 VL", "notes": "Fab"}, "B28": {"name": "combination mutant LC3.HC5 Fab (Fab, V domains shown)", "VH": "B1 VH with M34L", "VL": "B1 VL with N30E, Y91S", "notes": "Fab"}, "B29": {"name": "combination mutant LC4.HC3 Fab (Fab, V domains shown)", "VH": "B1 VH with T28K", "VL": "B1 VL with N52H, Y91S", "notes": "Fab"}, "B30": {"name": "combination mutant LC5.HC2 Fab (Fab, V domains shown)", "VH": "B1 VH with T30R", "VL": "B1 VL with N52E, Y91S", "notes": "Fab"}, "B31": {"name": "combination mutant LC7.HC2 Fab (Fab, V domains shown)", "VH": "B1 VH with T30R", "VL": "B1 VL", "notes": "Fab"}, "B32": {"name": "combination mutant LC7.HC5 Fab (Fab, V domains shown)", "VH": "B1 VH with M34L", "VL": "B1 VL", "notes": "Fab"}}, "note": "Residue numbers refer to the chain shown, from its start. In names and notes the source's numbering stands.", "data": [{"biological_target": "T1, His-tagged human HtrA1 protease domain (human, UniProt Q92743 161-367)", "T1 construct": "His-tagged protease domain; also called huHtrA1-PD-His; huHtrA1-PD", "T1 sequence (Q92743 other isoform, or with tags, fused parts or gaps limits assumed)": "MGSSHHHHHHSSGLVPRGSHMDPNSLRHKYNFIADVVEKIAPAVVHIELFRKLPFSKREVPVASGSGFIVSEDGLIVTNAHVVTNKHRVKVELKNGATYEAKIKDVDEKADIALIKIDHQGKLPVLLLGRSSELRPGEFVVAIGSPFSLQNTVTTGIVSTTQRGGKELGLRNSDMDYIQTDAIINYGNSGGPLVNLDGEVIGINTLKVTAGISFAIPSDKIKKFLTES", "test": "SPR (BIACORE T200), huHtrA1-PD-His captured by anti-His, Fab injected", "experimental": "(§1) To determine the binding affinity of selected Fab variants for HtrA1, SPR measurement with a BIACORE™ T200 instrument was performed. Briefly, a series S sensor chip CM5 was activated with 1-EDC and NHS reagents according to the supplier's instructions, and anti-His antibody was coupled to achieve 200-300 response units (RU), then following by blocking un-reacted groups with 1 M ethanolamine. For kinetics measurements, approximately 5 nM of huHtrA1-PD-His was first injected at 10 μl/min flow rate to capture approximately 100 RU at 2 different flow cells (FC), except for FC1 (which served as a reference). Next, 5-fold serial dilutions of Fab in HBS-P buffer (0.01M HEPES pH 7.4, 0.15M NaCl, 0.005% surfactant P20) from low (0.8 nM) to high (50 nM) were injected (flow rate: 30 μl/min). The binding responses on HtrA1 were corrected by subtracting of RU from a blank flow cell. The sensorgram was recorded and subject to reference and buffer subtraction before evaluating by BIACORE® T200 Evaluation Software (version 2.0). Association rates (kₒₙ) and dissociation rates (koff) were calculated using a simple one-to-one Langmuir binding model. The equilibrium dissociation constant (KD) was calculated as the ratio of koff/kₒₙ.", "units": {"Kd": "nM", "koff": "s⁻¹", "kon": "M⁻¹ s⁻¹"}, "values": [{"binder": "B1", "Kd": 0.335, "koff": 0.000193, "kon": 578000}, {"binder": "B2", "Kd": 0.48, "koff": 0.00013, "kon": 270000}]}, {"biological_target": "T1, His-tagged human HtrA1 protease domain", "test": "BIACORE SPR, single-cycle kinetics; Fab analyte over captured human HtrA1", "units": {"Kd": "nM", "koff": "s⁻¹", "kon": "M⁻¹ s⁻¹"}, "values": [{"binder": "B3", "Kd": 0.33, "koff": 0.00017, "kon": 520000}, {"binder": "B4", "Kd": 0.31, "koff": 0.00014, "kon": 450000}]}, {"biological_target": "T1, His-tagged human HtrA1 protease domain", "test": "BIACORE SPR, single-cycle kinetics; Fab analyte over captured human HtrA1", "remark": "another data set of the same source", "units": {"Kd": "nM", "koff": "s⁻¹", "kon": "M⁻¹ s⁻¹"}, "values": [{"binder": "B5", "Kd": 0.76, "koff": 0.00035, "kon": 460000}, {"binder": "B6", "Kd": 0.55, "koff": 0.00021, "kon": 380000}, {"binder": "B7", "Kd": 0.84, "koff": 0.00027, "kon": 320000}, {"binder": "B8", "Kd": 0.78, "koff": 0.00032, "kon": 410000}]}, {"biological_target": "T1, His-tagged human HtrA1 protease domain", "test": "BIACORE T200 SPR; Fab analyte over huHtrA1-PD-His captured by anti-His antibody", "experimental": "as §1", "units": {"Kd": "nM", "koff": "s⁻¹", "kon": "M⁻¹ s⁻¹"}, "values": [{"binder": "B9", "Kd": 0.117, "koff": "4.08e-05", "kon": 350000}, {"binder": "B10", "Kd": 0.309, "koff": "6.6e-05", "kon": 213000}, {"binder": "B11", "Kd": 0.131, "koff": "4.88e-05", "kon": 371000}, {"binder": "B12", "Kd": 0.106, "koff": "4.55e-05", "kon": 428000}, {"binder": "B13", "Kd": 0.095, "koff": "4.09e-05", "kon": 431000}, {"binder": "B14", "Kd": 0.0898}, {"binder": "B15", "Kd": 0.146, "koff": "6.41e-05", "kon": 438000}, {"binder": "B16", "Kd": 0.163, "koff": "6.47e-05", "kon": 397000}, {"binder": "B17", "Kd": 0.332, "koff": "7.93e-05", "kon": 239000}, {"binder": "B18", "Kd": 0.137, "koff": "2.75e-05", "kon": 200000}]}, {"biological_target": "T1, His-tagged human HtrA1 protease domain", "test": "SPR (BIACORE T200), huHtrA1-PD-His captured by anti-His, Fab injected", "remark": "another data set of the same source", "experimental": "These combination mutants included both a variant light chain and a variant heavy chain. BIACORE™ kinetic analysis was performed (as described below in Section C) using the combination mutants.\nas §1", "units": {"Kd": "nM", "koff": "s⁻¹", "kon": "M⁻¹ s⁻¹"}, "values": [{"binder": "B19", "Kd": 0.852, "koff": 0.000228, "kon": 268000}, {"binder": "B20", "Kd": 7.98, "koff": 0.000222, "kon": 27800}, {"binder": "B1", "Kd": 1.37, "koff": 0.000188, "kon": 137000}, {"binder": "B21", "Kd": 0.335, "koff": 0.000237, "kon": 709000}, {"binder": "B22", "Kd": 1.4, "koff": 0.000297, "kon": 212000}, {"binder": "B23", "Kd": 0.877, "koff": 0.000296, "kon": 337000}, {"binder": "B24", "Kd": 0.0616, "koff": "4.93e-05", "kon": 801000}, {"binder": "B25", "Kd": 1.08, "koff": 0.000251, "kon": 233000}, {"binder": "B26", "Kd": 1.1, "koff": 0.00023, "kon": 208000}, {"binder": "B27", "Kd": 0.772, "koff": 0.000267, "kon": 347000}, {"binder": "B2", "Kd": 0.905, "koff": 0.000115, "kon": 127000}, {"binder": "B14", "Kd": 0.0889, "koff": "7.95e-05", "kon": 885000}, {"binder": "B28", "Kd": 0.176, "koff": 0.000102, "kon": 577000}, {"binder": "B29", "Kd": 2.18, "koff": 0.00024, "kon": 110000}, {"binder": "B30", "Kd": 0.719, "koff": 0.000211, "kon": 294000}, {"binder": "B31", "Kd": 0.0955, "koff": 0.000189, "kon": "1.97e+06"}, {"binder": "B32", "Kd": 0.745, "koff": 0.000303, "kon": 406000}]}]}
